Ends that are not written are not given here.
Tests used:
[1] = biological target: T1, LMM (V1346 through I1941 of D. melanogaster myosin heavy-chain) (Drosophila melanogaster, UniProt P05661); test: Co-sedimentation assay of LMM titrated by WYR; type: binding
T1 construct: encompassing V1346 through I1941 of D. melanogaster myosin heavy-chain; made in house; host or cells: E. coli BL-21(DE3) pLysS
Experimental: A 68.9 kDa 602 aa peptide encompassing V1346 through I1941 of D. melanogaster myosin heavy-chain (herein LMM) with an N-terminal 6× His-tag cloned into pET-23a vector was transformed into E. coli BL-21(DE3) pLysS cells. Cells were grown in Luria broth (LB) containing 100 µg/mL ampicillin and 50 µg/mL chloramphenicol. Upon reaching A600 of 0.8–1.0, culture was chilled on ice for 15 min, and expression was induced by adding IPTG to 0.75 mM and incubating for 16 h at 25 °C with gentle rocking. Induced cells were collected by centrifugation at 10,000 rcf for 10 min and stored as pellets at −40 °C. Pellets were resuspended in lysis buffer described by Korkmaz et al., and lysed by sonication. […] The relative purity of each fraction was assessed via SDS-PAGE stained with Krypton (Thermo Scientific, Rockford, IL, USA). […] Protein concentration was determined via absorbance at 280 nm using an extinction coefficient of 18450 cm^−1 M^−1. […]
Synthetic, 6.6 kDa 52 aa WYR peptide encompassing H84-T136 of D. melanogaster flightin was sourced from Genscript (Piscataway, NJ, USA). Peptide was suspended in ddH2O, filtered through a 0.22 µm Millipore filter, and concentration determined by micro BCA assay and absorbance at 280 nm using an extinction coefficient of 21,430 cm^−1 M^−1. […]

[2] = biological target: T2, Myosin heavy chain, muscle (LMM) 1346-1941 (Drosophila melanogaster, UniProt P05661); test: co-sedimentation
T2 chain: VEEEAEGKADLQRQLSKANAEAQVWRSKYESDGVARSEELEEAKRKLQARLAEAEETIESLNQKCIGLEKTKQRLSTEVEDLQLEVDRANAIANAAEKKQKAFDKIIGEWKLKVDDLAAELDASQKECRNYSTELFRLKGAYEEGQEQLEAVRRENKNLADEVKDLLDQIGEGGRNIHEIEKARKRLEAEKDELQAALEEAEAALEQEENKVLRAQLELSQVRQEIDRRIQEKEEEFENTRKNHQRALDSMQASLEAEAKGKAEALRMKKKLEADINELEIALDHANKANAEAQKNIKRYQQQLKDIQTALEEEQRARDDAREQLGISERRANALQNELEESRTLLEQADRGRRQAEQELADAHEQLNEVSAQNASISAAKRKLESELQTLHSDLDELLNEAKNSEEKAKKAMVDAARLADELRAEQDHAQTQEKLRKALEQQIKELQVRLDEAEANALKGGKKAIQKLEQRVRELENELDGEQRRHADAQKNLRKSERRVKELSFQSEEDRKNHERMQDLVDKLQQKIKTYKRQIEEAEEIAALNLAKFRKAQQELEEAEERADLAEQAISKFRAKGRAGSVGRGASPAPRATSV

[3] = Circular dichroism of LMM alone, secondary structure estimation; type: physicochemical; conditions: for CD maximum wavelength: MRE profile, Figure S9; for helicity, range over methods: without CONTIN, CDSSTR, BeStSel; for α helical content, range over methods: all methods
Experimental: A 68.9 kDa 602 aa peptide encompassing V1346 through I1941 of D. melanogaster myosin heavy-chain (herein LMM) with an N-terminal 6× His-tag cloned into pET-23a vector was transformed into E. coli BL-21(DE3) pLysS cells. Cells were grown in Luria broth (LB) containing 100 µg/mL ampicillin and 50 µg/mL chloramphenicol. Upon reaching A600 of 0.8–1.0, culture was chilled on ice for 15 min, and expression was induced by adding IPTG to 0.75 mM and incubating for 16 h at 25 °C with gentle rocking. Induced cells were collected by centrifugation at 10,000 rcf for 10 min and stored as pellets at −40 °C. Pellets were resuspended in lysis buffer described by Korkmaz et al., and lysed by sonication. To purify the MHC peptide, the lysate was rocked at 4 °C with Ni-NTA-agarose resin for one hour in a 20 mL column before being rinsed with 8 column volumes of 20 mM imidazole wash-buffer. The resin was then rinsed in two 15 mL portions of each 40- and 80 mM imidazole wash buffer, with 10 min of rocking in each 15 mL portion. The peptide was eluted in six 1 mL fractions and one 12 mL fraction for a total volume of 18 mL 200 mM imidazole elution buffer. All wash and elution buffers are variants of ‘Buffer A’ described by Korkmaz et al. with the following modifications: imidazole concentration was adjusted to 20 mM, 40 mM or 80 mM for wash buffer and to 200 mM for elution buffer. The relative purity of each fraction was assessed via SDS-PAGE stained with Krypton (Thermo Scientific, Rockford, IL, USA). Selected fractions were further purified and concentrated with an Amicon Ultra-15 50k centrifugal filter, and buffer exchanged into 400 mM NaF, 20 mM sodium phosphate pH 7.0, 1 mM TCEP for storage. Protein concentration was determined via absorbance at 280 nm using an extinction coefficient of 18450 cm^−1 M^−1. Densitometry using ImageJ was carried out on Krypton stained gels to ascertain purity of the sample [23] and the peptide identity verified by mass spectrometry.
WYR and LMM samples ranging from 0.5 to 10 µM were prepared in 700 µL of 215 mM NaF, 20 mM Sodium Phosphate, pH 7, 1 mM TCEP. LMM preparations were centrifuged at 10,000 rcf for 10 min and filtered through a 0.22 µm Millipore filter. Blank samples used an equivalent volume of filtrate from the final flow through from LMM concentrators as used in the experimental samples to account for any possible trace contaminant. These blanks were checked against equivalent freshly prepared buffer. A rectangular STARNA quartz cuvette with a pathlength of 0.2 cm was used throughout. Between experiment days the cuvette received a full wash with the provided STARNA detergent in accordance to STARNA protocol. Between samples, 1× 60% EtOH and 3× dH2O rinses were carried out and residual fluid was evaporated with pressurized nitrogen.
Samples were measured at 25 °C using a Jasco J-1700 spectropolarimeter at a scanning-speed of 20 nm/min with a digital integration time (DIT) of 8 s and bandwidth of 0.5–1 nm over six accumulations, minimally from 260–190 nm on continuous scan mode. A minimum n = 6 was used for measurements of the experimental combination of LMM and WYR and an n = 10 for WYR alone in 215 mM NaF, 20 mM Sodium Phosphate, pH 7, 1 mM TCEP. Wavelengths at maxima and minima, as well as θ222/208 and θ192/208 ellipticity ratios were recorded for all spectra. […] While other analysis programs exist, BeStSel is best suited for non-helical proteins of more unusual structure through both its diverse eight element modelling and inclusion of a basis dataset that incorporates proteins with rare secondary structures. BeStSel was most appropriate given the non-helical profile of WYR along with its high aromatic content and presence of proline.
Independent spectra for each peptide were evaluated after subtracting baseline spectra. […]

T1 sequence (P05661 1-1936 isoform P05661-24): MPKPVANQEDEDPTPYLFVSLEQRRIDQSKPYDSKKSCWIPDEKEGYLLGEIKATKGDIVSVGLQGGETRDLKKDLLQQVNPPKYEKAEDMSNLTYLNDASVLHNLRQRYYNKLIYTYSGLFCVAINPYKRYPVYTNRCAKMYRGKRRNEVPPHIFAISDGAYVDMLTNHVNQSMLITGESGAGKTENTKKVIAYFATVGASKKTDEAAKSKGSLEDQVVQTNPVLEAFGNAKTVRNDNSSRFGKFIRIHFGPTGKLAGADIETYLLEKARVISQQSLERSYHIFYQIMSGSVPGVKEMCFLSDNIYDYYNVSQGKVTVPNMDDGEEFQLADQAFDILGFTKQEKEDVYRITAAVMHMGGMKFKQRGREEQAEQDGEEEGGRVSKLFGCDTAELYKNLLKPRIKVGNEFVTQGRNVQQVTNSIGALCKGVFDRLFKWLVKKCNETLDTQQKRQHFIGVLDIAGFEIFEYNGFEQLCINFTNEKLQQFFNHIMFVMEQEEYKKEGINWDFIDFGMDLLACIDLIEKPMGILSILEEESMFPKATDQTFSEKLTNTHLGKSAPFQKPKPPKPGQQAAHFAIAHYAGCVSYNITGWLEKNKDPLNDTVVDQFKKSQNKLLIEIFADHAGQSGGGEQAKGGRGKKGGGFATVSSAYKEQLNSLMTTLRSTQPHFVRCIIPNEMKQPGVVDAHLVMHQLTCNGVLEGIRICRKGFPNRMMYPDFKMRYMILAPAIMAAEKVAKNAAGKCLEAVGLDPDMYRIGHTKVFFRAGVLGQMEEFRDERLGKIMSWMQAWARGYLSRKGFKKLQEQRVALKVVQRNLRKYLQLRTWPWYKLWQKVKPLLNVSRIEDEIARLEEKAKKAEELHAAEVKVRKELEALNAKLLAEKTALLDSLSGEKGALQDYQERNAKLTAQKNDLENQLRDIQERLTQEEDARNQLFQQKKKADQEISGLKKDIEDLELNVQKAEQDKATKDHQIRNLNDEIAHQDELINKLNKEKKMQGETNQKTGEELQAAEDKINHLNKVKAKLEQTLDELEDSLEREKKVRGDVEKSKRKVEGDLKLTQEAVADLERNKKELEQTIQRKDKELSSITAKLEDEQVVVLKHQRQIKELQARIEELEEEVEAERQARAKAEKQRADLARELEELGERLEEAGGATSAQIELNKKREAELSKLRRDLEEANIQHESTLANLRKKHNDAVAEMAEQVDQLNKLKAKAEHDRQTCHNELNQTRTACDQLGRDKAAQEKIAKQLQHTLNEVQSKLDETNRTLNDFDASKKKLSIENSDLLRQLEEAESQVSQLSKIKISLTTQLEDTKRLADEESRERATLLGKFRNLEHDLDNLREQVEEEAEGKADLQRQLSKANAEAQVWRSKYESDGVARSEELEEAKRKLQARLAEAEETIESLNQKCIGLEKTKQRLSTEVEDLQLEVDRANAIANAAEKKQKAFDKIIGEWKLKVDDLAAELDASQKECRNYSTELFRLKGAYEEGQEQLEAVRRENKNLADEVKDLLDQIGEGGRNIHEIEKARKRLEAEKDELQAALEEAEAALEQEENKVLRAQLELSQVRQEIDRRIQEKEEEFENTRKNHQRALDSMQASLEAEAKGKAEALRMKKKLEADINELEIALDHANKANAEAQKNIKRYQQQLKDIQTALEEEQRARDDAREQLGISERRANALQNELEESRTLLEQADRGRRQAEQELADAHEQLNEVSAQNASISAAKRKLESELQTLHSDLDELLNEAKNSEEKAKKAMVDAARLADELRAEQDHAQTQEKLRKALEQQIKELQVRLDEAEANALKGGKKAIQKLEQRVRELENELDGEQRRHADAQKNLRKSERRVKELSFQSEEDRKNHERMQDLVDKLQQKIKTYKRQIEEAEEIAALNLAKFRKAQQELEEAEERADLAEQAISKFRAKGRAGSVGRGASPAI

Molecule: HWVRPKFLQYKYMYNYRTNYYDDVIDYIDKKQTGVAREIPRPQTWAERVLRT [WYR]
- Kd ([1]; Kd 95% CI, 95% confidence interval of Kd, co-sedimentation): 1550 to 2760 nM
- LMM sedimenting in the presence of WYR ([1]; upon centrifugation at the WYR/LMM ratio used in CD experiments): ~ 30%

B1: Flightin (WYR domain) 84-136 (protein)
chain: HWVRPKFLQYKYMYNYRTNYYDDVIDYIDKKQTGVAREIPRPQTWAERVLRTR
- Kd [2]: 2060 nM

B2: LMM: 68.9 kDa 602 aa peptide encompassing V1346 through I1941 of D. melanogaster myosin heavy-chain with an N-terminal 6× His-tag (protein, UniProt P05661 1346-1941, looked up, fragment)
chain: T2 chain
modifications: N-terminal 6xHis tag
notes: 68.9 kDa 602 aa peptide encompassing V1346 through I1941 of D. melanogaster myosin heavy-chain with an N-terminal 6× His-tag
- fractional alpha helical composition ([3]; 208 nm magnitude, [LMM] 2 µM): 28.5%
- fractional alpha helical composition ([3]; 208 nm magnitude, [LMM] 10 µM): 28.7%
- fractional alpha helical composition ([3]; 222 nm magnitude, [LMM] 2 µM): 18.1%
- fractional alpha helical composition ([3]; 222 nm magnitude, [LMM] 10 µM): 19.1%
- fractional alpha helical composition ([3]; 230-240 nm slope, [LMM] 2 µM): 14.2%
- fractional alpha helical composition ([3]; 230-240 nm slope, [LMM] 10 µM): 15.3%
- fractional alpha helical composition ([3]; BeStSel (190-260), [LMM] 2 µM): 11.3%
- fractional alpha helical composition ([3]; BeStSel (190-260), [LMM] 10 µM): 15.6%
- fractional alpha helical composition ([3]; CDSSTR (SMP180), [LMM] 2 µM): 8%
- fractional alpha helical composition ([3]; CDSSTR (SMP180), [LMM] 10 µM): 17.9%
- fractional alpha helical composition ([3]; CONTIN (SMP180), [LMM] 10 µM): 8.2%
- fractional alpha helical composition ([3]; K2D, [LMM] 2 µM): 19%
- fractional alpha helical composition ([3]; K2D, [LMM] 10 µM): 22%
- CD maximum wavelength ([3]; LMM 2 µM): 193-194 nm
- CD maximum wavelength ([3]; LMM 10 µM (higher concentration)): 197-198 nm
- 222/208 ratio ([3]; [LMM] 2 µM (low)): 1.08
- 222/208 ratio ([3]; [LMM] 10 µM (high)): 1.17
- helicity, range over methods ([3]; high concentration): 15.3 to 28.7%
- α helical content, range over methods ([3]; higher LMM concentration (10 µM)): 8.2–28.7%
- helicity, range over methods ([3]; low concentration): 14.2 to 28.5%
- α helical content, range over methods ([3]; lower LMM concentration (2 µM)): 8–28.5%
